Experimental data: patent US20250051413A1

Biological target: human IL-12 receptor (b1 and b2 chain) (human) (UniProt P42701)
Test: cell-based or functional assay

human IL-12 receptor (b1 and b2 chain) (human), sequence (Q99665 24-862, chain 2 of 2, other chains not shown): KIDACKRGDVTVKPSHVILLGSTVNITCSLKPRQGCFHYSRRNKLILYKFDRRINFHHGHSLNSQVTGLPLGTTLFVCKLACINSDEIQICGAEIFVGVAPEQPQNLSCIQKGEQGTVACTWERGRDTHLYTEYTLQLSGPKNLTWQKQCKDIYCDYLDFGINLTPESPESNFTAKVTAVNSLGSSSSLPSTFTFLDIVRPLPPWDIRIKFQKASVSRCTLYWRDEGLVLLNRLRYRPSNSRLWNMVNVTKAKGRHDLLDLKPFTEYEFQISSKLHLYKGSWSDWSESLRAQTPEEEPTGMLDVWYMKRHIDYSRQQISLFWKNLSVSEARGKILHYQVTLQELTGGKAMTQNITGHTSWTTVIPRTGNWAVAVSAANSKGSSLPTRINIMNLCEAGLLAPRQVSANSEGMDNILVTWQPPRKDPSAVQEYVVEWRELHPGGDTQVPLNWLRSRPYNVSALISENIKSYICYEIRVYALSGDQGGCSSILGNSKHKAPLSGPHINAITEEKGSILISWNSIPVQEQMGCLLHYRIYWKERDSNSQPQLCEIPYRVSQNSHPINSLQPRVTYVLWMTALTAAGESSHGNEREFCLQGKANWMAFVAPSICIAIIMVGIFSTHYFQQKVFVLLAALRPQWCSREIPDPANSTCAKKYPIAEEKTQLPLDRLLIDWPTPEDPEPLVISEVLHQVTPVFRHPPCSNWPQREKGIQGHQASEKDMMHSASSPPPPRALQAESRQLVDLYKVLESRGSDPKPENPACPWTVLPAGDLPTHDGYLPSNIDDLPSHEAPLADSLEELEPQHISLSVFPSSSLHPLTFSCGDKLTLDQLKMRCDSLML
Human recombinant IL-12, sequence (P29460 23-328 limits assumed): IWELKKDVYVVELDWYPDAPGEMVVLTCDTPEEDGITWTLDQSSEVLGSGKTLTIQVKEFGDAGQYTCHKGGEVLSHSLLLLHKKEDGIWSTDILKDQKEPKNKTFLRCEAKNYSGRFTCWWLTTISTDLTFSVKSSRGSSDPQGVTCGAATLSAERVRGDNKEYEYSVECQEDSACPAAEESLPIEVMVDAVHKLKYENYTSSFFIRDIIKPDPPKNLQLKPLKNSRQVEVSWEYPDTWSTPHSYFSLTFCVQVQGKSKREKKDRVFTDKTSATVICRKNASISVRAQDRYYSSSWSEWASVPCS
Human recombinant IL-12, sequence (P29459 23-219 limits assumed): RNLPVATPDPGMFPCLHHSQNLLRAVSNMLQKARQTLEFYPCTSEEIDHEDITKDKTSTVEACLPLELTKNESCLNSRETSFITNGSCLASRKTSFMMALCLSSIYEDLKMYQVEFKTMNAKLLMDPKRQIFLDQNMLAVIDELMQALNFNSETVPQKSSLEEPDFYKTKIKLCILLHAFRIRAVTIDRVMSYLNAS

E-max (Maximal response), p-STAT4 positive cells, CD8+ T cells and NK cells: 60 to 80%
EC50 of p-STAT4 induction in human PBMC, CD4+ T cells: 0.072 nM
EC50 of p-STAT4 induction in human PBMC, CD8+ T cells: 0.045 nM
EC50 of p-STAT4 induction in human PBMC, NK cells: 0.166 nM
Substance: Human recombinant IL-12 (from UniProt P29460 23-328; P29459 23-219) (ligand)
